This is an account of results in patent US20120311746A1.

The experiment has as its target receptors in brush border membrane vesicles produced from Spodoptera frugiperda (fall armyworm, FAW). The experiment in a line: competitive displacement of 0.5 nM ^125I Cry1Be (competitor) from FAW BBMV.

Regarding “Cry1Fa protein from Bacillus thuringiensis (from UniProt Q03746 28-605) (ligand)”, the concentration at which displacement of ^125I Cry1Be is effective is greater than 100 nM.
